Reference: article PMC10881513 (Nature Communications, 2024)

Target: T1, ASFV RNA polymerase subunit vRPB1 (African swine fever virus, strain BA71V, UniProt P42486 1-1450)
T1 sequence: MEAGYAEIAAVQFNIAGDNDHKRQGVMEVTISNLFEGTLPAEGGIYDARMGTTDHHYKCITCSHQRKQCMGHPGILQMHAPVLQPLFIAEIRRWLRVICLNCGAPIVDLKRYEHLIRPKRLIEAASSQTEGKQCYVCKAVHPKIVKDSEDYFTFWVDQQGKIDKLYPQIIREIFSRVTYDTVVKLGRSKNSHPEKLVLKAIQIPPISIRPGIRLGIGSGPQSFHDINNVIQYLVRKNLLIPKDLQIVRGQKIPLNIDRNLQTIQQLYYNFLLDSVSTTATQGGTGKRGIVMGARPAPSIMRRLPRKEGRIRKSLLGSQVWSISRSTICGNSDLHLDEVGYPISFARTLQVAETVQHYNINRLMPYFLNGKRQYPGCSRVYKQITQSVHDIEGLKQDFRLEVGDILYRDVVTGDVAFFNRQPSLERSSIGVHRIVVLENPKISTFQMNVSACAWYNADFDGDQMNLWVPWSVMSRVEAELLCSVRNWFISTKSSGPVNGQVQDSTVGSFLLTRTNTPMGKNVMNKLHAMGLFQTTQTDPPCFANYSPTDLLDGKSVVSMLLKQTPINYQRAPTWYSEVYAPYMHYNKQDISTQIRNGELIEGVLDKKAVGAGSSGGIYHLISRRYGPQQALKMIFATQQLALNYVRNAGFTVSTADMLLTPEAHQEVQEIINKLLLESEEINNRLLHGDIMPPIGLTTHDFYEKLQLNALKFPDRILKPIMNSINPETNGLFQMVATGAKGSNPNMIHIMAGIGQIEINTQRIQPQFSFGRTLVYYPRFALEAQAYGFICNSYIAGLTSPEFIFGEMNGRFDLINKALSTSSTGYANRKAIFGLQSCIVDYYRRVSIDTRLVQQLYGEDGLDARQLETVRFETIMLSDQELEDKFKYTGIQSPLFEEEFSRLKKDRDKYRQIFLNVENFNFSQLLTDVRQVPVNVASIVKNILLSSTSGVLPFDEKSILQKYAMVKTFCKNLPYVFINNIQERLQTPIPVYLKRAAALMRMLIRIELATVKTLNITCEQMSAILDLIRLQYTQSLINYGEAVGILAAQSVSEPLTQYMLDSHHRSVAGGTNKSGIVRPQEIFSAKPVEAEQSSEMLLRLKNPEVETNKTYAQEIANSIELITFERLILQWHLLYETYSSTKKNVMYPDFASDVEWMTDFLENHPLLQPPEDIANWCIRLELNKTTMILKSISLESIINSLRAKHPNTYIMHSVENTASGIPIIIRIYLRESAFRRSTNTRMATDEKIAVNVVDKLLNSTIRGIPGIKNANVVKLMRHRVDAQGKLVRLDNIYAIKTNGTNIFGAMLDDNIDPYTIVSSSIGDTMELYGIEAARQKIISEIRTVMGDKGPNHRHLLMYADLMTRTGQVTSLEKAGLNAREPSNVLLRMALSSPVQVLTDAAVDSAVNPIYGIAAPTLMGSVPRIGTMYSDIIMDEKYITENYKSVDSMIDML
Assay: cryo-EM structure
Settings: both partners purified

B1: ASFV RNA polymerase subunit vRPB2, His-ZZ-tag cleaved with TEV (natural protein)
chain: MEPLRPQITYGPIETVDNEELTEADMLSFISAAVNSTGLIGYNIKSFDDLMDNGIPQIVKQMFNVDITYKDQRDHTEIDKLRESVQIQFNFTDVNIERPQHRNYSQGNKINLLPNKARLCGLSYSGPVNLAAEVILTAHYSNGRQEVKRASIPPFQVSTFPIMRGSNRCHTHHLSKTAKKEIGEDPNEPGGYFIARGGEWVVDLLENIRFNTLHIHYHTMQQGNNEIIRGEFISQPGGAFENSSQIIIRYMTTGAITIEINSTKFSKLRIPWYLIFRMFGMTGDDSIIEQVVFDLESNSPVNTFMIEILEKSIHVLDPIFQPVQHEPNREKIIQFLSEKVSKFVSNPSAYKSDENAVQYLNERQLTILDKILLPHMGQTADTRVRKLRFLGLLIHKILLVIMNVFPPTDRDSYRTKRVHGSGVSLAKAFKAIFNTSVIAPIINGFKELLKQTAFEELTQRNIIEAFSAALSKNTASDLNRSMEQSIISGNKTIMVRQRPIVNRVSTQSLERKNLLNTISALRTVNTHNTTNASKQTERADMMRRVHASYPGYICVAQSADTGEKVGMSKQLAITANVCTAGEVLSLKQRLLSDPAIQQLADVSNKDIVRKGLARVFINGEWIGCCTNAFELAQRYRMFRREGKIVHPHTTIYWDSMVDEVEFWLDVGRLTRPLLIVDNNIEKYNQACYKAAEARKKGDKDWEKHKIPFIQNTRFTSQMAKDILAGTLTLEDLVAQGICEFITPEEAENCLVAFSIIELRKHKHDVTRRFTHVDVPQAILGLAALVSPYANCTQPARVTYETNQGRQTGGWYCFSWPYRVDMNRFFQFYNEMPLVKTIAHNYVIPNGLNTIVAYMIYGGYNQEDSVIVSQSFIDRGGFAGTFYREEKVELESDIESFGKPDPLITKNLKPGANYEKLVDGFVPVGTVVKKGDIIIGKVAKIRGEKDELNKYIDRSVMYGFDEPAVVDAVMRPHGPNDEIFGLMRLRYERNLNIGDKMSSRSGNKGIAALALPTSDMPFTEDGLQPDLIVNPHSHPSRMTNGQMIETTVGLANALQGVVTDGTAFLPINVQLLSERLAQEGLRFNGCQKMFNGQTGEYFDAAIFIGPTYHQRLQKFVLDDRYAVASYGPTDALTGQPLDGKRSHGGLRLGEMEHWVLTAQGAMQTIIEKSHDDSDGCISYICRNCGEPAIYNASHPIYKCMNCDVQADIGMVDSRRSSIVFQHEMRAANVNITSVLSPRVFQPA
B1: binds.
